From publication PMC7253548
Positions count from the first letter of the chain named.

B1: 18.0-HSE (perfect HSE only) (dsDNA)
DNA 1: CTTGGAATAAGCTTCTAGAAACTTCCAGTTTG
DNA 2: CAAACTGGAAGTTTCTAGAAGCTTATTCCAAG
B2: 18.0-HSE-mutant (Mu) (dsDNA)
DNA 1: B1 DNA 1 with G18C, T23A, T24A, C25T
DNA 2: B1 DNA 2 with G8A, A9T, A10T, C15G

Target: OsHsfB4d (Oryza sativa (rice; cv. Zhonghua 11?), UniProt Q10KX8 1-305)
Assay: EMSA; […], room temperature 20 min, […]; buffer, […]
Settings: protein: recombinant; tags: 6xHis (pET-28a); chain copies: 3

OsHsfB4d, sequence (Q10KX8 whole entry): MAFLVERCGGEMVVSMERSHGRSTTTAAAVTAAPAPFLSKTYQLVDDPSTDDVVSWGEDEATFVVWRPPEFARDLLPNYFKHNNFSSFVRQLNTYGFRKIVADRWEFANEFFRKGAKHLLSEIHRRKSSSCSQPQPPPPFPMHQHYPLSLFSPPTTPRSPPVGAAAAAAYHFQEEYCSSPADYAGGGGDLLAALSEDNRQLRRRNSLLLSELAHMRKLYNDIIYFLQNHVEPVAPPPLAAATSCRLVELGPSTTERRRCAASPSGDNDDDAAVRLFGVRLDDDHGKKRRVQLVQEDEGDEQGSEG

Binder | binding result
B1 | binds
B2 | no binding
